Positions count from the first letter of the chain named.
How the values were obtained:
Experiment in all cases: FRET or BRET; as the two-plasmid FRET, cells treated with mecillinam (2 mg/L) for two mass doublings
Conditions in all cases: partners not purified
[1] = target: T1, PBP2 (wild type), fused to mKO or to mCherry (E. coli, UniProt P0AD65 1-633)
T1 construct: PBP2, peptidoglycan transpeptidase of the E. coli elongasome, wild type; mKO-PBP2 in all others; also called mKO-PBP2^WT; mKO-PBP2; source: E. coli LMC500, expressed from plasmid (15 uM IPTG), in fixed cells; not shown: mKO (donor construct, pWA004) or mCherry (acceptor construct), N-terminal, kept
T1 sequence (looked up): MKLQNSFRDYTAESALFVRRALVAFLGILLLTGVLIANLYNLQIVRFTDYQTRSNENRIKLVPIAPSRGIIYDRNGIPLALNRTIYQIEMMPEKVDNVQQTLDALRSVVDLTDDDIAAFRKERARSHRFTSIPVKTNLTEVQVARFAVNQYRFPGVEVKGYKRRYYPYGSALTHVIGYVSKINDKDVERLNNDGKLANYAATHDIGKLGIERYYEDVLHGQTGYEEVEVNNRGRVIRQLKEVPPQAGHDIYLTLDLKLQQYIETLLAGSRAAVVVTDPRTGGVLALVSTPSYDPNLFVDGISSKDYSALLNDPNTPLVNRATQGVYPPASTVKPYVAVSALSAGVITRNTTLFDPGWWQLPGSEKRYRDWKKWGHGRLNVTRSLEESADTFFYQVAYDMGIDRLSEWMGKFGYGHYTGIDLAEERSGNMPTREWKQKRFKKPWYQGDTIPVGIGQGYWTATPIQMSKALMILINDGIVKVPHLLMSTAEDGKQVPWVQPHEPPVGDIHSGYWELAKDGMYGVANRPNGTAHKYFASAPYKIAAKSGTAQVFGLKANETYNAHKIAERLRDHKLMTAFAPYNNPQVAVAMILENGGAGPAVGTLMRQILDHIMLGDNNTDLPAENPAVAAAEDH

mKO-PBP2^S330C = target: T2, mKO-PBP2^S330C (E. coli, UniProt P0AD65 1-633, S330C)
T2 construct: made from pWA004 by mutagenesis PCR; source: E. coli LMC500, expressed from plasmid (15 uM IPTG), in fixed cells; not shown: mKO, N-terminal, kept
T2 sequence (looked up): T1 sequence (looked up) with S330C

mKO-^MalF37PBP2 = target: T3, mKO-^MalF37PBP2 (E. coli, UniProt P02916 1-37; P0AD65 46-633)
T3 construct: MalF of E. coli, the first 37 residues (cytoplasmic N-terminus and transmembrane helix), amplified from the MG1655 genome; PBP2 of E. coli excluding the first 45 residues (NT and TMH removed, periplasmic domain kept); also called PBP2 with the NT and TMH of MalF; source: E. coli LMC500, expressed from plasmid (15 uM IPTG), in fixed cells; not shown: mKO, N-terminal, kept
T3 chain (looked up): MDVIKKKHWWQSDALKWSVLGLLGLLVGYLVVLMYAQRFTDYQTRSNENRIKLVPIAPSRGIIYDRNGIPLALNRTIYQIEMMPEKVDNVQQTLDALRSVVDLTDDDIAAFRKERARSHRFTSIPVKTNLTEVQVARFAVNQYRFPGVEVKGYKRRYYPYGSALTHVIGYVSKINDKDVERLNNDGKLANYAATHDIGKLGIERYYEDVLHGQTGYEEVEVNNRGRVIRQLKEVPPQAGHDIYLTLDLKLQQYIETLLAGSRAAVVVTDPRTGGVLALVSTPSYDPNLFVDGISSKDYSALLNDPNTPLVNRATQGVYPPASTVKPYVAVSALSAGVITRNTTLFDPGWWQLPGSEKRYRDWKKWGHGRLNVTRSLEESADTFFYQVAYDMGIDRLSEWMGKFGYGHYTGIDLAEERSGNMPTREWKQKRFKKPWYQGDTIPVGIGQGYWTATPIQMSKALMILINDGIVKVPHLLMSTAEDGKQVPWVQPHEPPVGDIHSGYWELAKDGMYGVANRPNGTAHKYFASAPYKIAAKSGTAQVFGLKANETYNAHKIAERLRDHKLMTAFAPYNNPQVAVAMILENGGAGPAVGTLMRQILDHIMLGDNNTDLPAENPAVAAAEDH

B1: RodA (wild type), fused to mCherry or to mKO (enzyme, E. coli, UniProt P0ABG7 1-370, looked up)
chain: MTDNPNKKTFWDKVHLDPTMLLILLALLVYSALVIWSASGQDIGMMERKIGQIAMGLVIMVVMAQIPPRVYEGWAPYLYIICIILLVAVDAFGAISKGAQRWLDLGIVRFQPSEIAKIAVPLMVARFINRDVCPPSLKNTGIALVLIFMPTLLVAAQPDLGTSILVALSGLFVLFLSGLSWRLIGVAVVLVAAFIPILWFFLMHDYQRQRVMMLLDPESDPLGAGYHIIQSKIAIGSGGLRGKGWLHGTQSQLEFLPERHTDFIFAVLAEELGLVGILILLALYILLIMRGLWIAARAQTTFGRVMAGGLMLILFVYVFVNIGMVSGILPVVGVPLPLVSYGGSALIVLMAGFGIVMSIHTHRKMLSKSV
notes: RodA, peptidoglycan glycosyltransferase of the E. coli elongasome; wild-type rodA gene; mCh-RodA in all others; also called mCh-RodA; mKO-RodA; source: E. coli LMC500, expressed from plasmid (15 uM IPTG), in fixed cells; not shown: mCherry (acceptor construct, pSAV047-RodA) or mKO (donor construct, pXL56), N-terminal, kept
EfA (acceptor FRET efficiency) [1]: 7.9%
EfA (acceptor FRET efficiency) (mKO-PBP2^S330C): 6.6%
EfA (acceptor FRET efficiency) (mKO-^MalF37PBP2): 3%
